Source: paper PMC6212840
Like-named read-outs stand apart in the source and are kept apart here.

B1: TbMP63-OB (aa 472-587) (domain or fragment)
chain: SAIGASWAETELIPHAQCVSNITIVGRVLDVSQASENVSHVTVFVEGERSGEEETLTLCCFGEVSQKIRGTLKRNATIFASGTLRLHPVYEASNNKYYVSPVVHVSMPTGTLAVIT

How the values were obtained:
[1] = molecular target: TbMP18-FL (aa 19-164) (Trypanosoma brucei); experiment: SEC
[2] = molecular target: TbMP18-FL (aa 19-164) (Trypanosoma brucei)

Molecule	stoichiometry N [1]	stoichiometry N [2]
TbMP18-FL (aa 19-164) (natural protein)	4	–
TbMP24-FL (aa 47-246) (natural protein)	1.5	1.1
B1	–	0.67
